Data set [1] has as its target T1, IFNγ (human) (UniProt P01579).
T1 sequence: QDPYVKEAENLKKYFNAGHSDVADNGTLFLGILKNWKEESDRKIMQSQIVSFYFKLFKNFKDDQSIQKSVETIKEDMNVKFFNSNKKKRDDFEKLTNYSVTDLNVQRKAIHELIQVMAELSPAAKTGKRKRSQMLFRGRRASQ
The data set is described as follows: SPR. The note with it: biotin-dT at T53, SPR: 1x PBS (1 mM KH2PO4, 3 mM Na2HPO4, 155 mM NaCl; 205 mM NaCl for IFNγ), pH 7.4, 0.05% Nonidet P-40, 25°C, EMSA: 1x PBS, 0.05% NP-40, 25°C, 25 nM DNA, 50 nM …. On the technique in general: In EMSA bound probe runs differently from free probe, usually more slowly.

The target in data set [2] is T1, IFNγ (human). The note with it: N28 and N39 = Ds; biotin-dT at T53; SPR: 1x PBS (1 mM KH2PO4, 3 mM Na2HPO4, 155 mM NaCl; 205 mM NaCl for IFNγ), pH 7.4, 0.05% Nonidet P-40, 25°C; EMSA: 1x PBS, 0.05% NP-40, 25°C, 25 nM DNA, 50 nM …; cited from earlier work.
Data set [3] has as its system T2, VEGF165 (human), P15692-4.
T2 sequence: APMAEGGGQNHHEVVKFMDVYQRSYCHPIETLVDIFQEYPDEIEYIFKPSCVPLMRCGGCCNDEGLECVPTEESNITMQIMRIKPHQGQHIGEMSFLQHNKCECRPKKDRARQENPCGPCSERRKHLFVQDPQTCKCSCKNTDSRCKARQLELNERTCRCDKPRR
The data set is described as follows: SPR. The note with it: biotin-dT at T54, SPR: 1x PBS (1 mM KH2PO4, 3 mM Na2HPO4, 155 mM NaCl; 205 mM NaCl for IFNγ), pH 7.4, 0.05% Nonidet P-40, 25°C, EMSA: 1x PBS, 0.05% NP-40, 25°C, 25 nM DNA, 50 nM ….

Data set [4] relates to T2, VEGF165 (human), P15692-4. The note with it: N25 and N34 = Ds (7-(2-thienyl)imidazo[4,5-b]pyridine); biotin-dT at T54; SPR: 1x PBS (1 mM KH2PO4, 3 mM Na2HPO4, 155 mM NaCl; 205 mM NaCl for IFNγ), pH 7.4, 0.05% Nonidet P-40, 25°C; EMSA: 1x PBS, 0.05% NP-40, 25°C, 25 nM DNA, 50 nM …; cited from earlier work.

Like-named read-outs stand apart in the source and are kept apart here.

What is called Kd is the equilibrium constant for the complex coming apart.

On to “CCCGCCCGGGTCCGCGAAGCGGTAGGTATGGGCTAGGCAGCTGGCGGGCGCGTAGCG [I-Apt4 (AA)]”, for which the Kd in the data set with IFNγ (human) [1] is 16 nM.
Regarding “CCCGCCCGGGTCCGCGAAGCGGTAGGTNTGGGCTAGGCNGCTGGCGGGCGCGTAGCG [I-Apt1 (DD)]”, the Kd was 0.013 nM in the data set with IFNγ (human) [1] (N28 and N39 = Ds); 0.033 nM with IFNγ (human) [2].
Regarding “GCGGTAAGCCGCGTCCGAAGGGGCATGCGGCGAACCCGAATGGGTCCGCCGCGTAGCG [V-Apt4 (AA)]”, in data set [3], the dissociation constant Kd stood at 0.16 nM.
Consider “GCGGTAAGCCGCGTCCGAAGGGGCATGCGGCGANCCCGAATGGGTCCGCCGCGTAGCG [V-Apt2 (AD)]”, for which, in data set [3] (N34 = Ds), the Kd stood at 0.002 nM.
Sequence “GCGGTAAGCCGCGTCCGAAGGGGCNTGCGGCGAACCCGAATGGGTCCGCCGCGTAGCG [V-Apt3 (DA)]” displayed a Kd in data set [3] (N25 = Ds) of 0.058 nM.
Turning to “GCGGTAAGCCGCGTCCGAAGGGGCNTGCGGCGANCCCGAATGGGTCCGCCGCGTAGCG [V-Apt1 (DD)]”, the dissociation constant Kd was 0.0016 nM in data set [3] (N25 and N34 = Ds (7-(2-thienyl)imidazo[4,5-b]pyridine)); 0.001 nM in data set [4].

These data come from article PMC6895277.
